B1: HBc mutant S3A, expressed in HuH-7 cells (natural protein)
chain: MDIDPYKEFGATVELLSFLPSDFFPSVRDLLDTASALYREALESPEHCSPHHTALRQAILCWGELMTLATWVGVNLEDPASRDLVVSYVNTNMGLKFRQLLWFHISCLTFGRETVIEYLVSFGVWIRTPPAYRPPNAPILSTLPETTVVRRRGRAPRRRTPAPRRRRSQAPRRRRSQSRESQC
B2: HBc mutant S3D, E. coli-expressed (natural protein)
chain: B1 chain with A155D, A162D, A170D
B3: HBc mutant S7A, expressed in HuH-7 cells (natural protein)
chain: B1 chain with S168A, S176A, S178A, S181A
B4: HBc mutant S3D, expressed in HuH-7 cells (natural protein)
chain: B1 chain with A155D, A162D, A170D
B5: HBc mutant S7D, E. coli-expressed (natural protein)
chain: B1 chain with A155D, A162D, S168D, A170D, S176D, S178D, S181D
B6: HBc mutant S7D, expressed in HuH-7 cells (natural protein)
chain: B1 chain with A155D, A162D, S168D, A170D, S176D, S178D, S181D

Positions count from the first letter of the chain named. Names may count otherwise.

The data set concerns the molecule itself. In words: native gel or EMSA. (Mobility shift assays separate free from complexed probe on a gel.)
Take B1: the binding result is reported as “binds”. On to B2, for which the binding result is recorded as “binds”. As for B3, the entry is “binds”; as for B4, “binds”.

B5: the binding result is on record as “binds”.

B6: the binding result was “binds”.

The values above are taken from PMC5154190, “HBV maintains electrostatic homeostasis by modulating negative charges from phosphoserine and encapsidated nucleic acids” (Scientific Reports, 2016).
